The values below come from a protein production outcome set (Wang et al. 2014).

This data set is described as follows: label from the status in PepcDB records.

In the case of “MGNVLFLVSLSLIWVMLLYHMFLMQGGFRHYMTFERNIPKWKENVKDLPKVSVLIPAHNEEVVIRQTLKAMVNLYYPKDRLEIIVVNDNSSDRTGDIVDEFSTQYGFIKMVVTKPPHAGKGKSSALNCGFAESNGDVICVYDADNTPEKMAVYYLVLGLMNDQKAGAVVGKFRVINAAKTLLTKFINIETICFQWMAQGGRWKWFKIATIPGTNFAIRRSIIEQLGGWDDKALAEDTELTIRVYNLGYHIRFFPAAVTWEQEPETWKVWWRQRTRWARGNQYVVLKFLAQFFKLKRKRIIFDLFYFFFTYFLFFFGVIMSNAIFVINLFYNLHLSFGFLSIILWVLAFFLFMTKVMITLSIEKTEMNRQNFFIVFLMYFTYSQAWIVLVIYSLFVEIKHRLFKQHGTKQNDTIKRKAGDFFEIYHHMSGKLLADHGDGTSGCSQRRYSRRLDPGGKQPGTSQAASAHKRSLDFIRGKRQRRADVSNTGGRLLYPSAAYT”, the protein production result was “failed”.
Next, “MGPFLMRILALGLVAGAALAQGVQAWLERGERLLSEGAYAEAVAAFEEVLRQDYGQFQAHLGLGVALVRLGRLEEARFAFDQMTRVFPDRYEGHFNLGQVYLRMGEAGKAAEAFAKAAAIAPREEAYLAWSGALLQEGKAREAAAVLERGLSPERSPAYRLALAQALYAAGEREAAVPHLYAALNREPGRAEAWDLLARVLAEVGLADRARREVERGLEAVQDPKGKALLLLRKGTLVEDPEPLWREALALDPDLWQAAYLLGRRRLEAGDLKEGLRWLQEAYAKGQDPEVALALAAAYLKAKDYANAYRYAKEAGPAGAFLQAQAAQGLGRRQEALKLLEGIASPQALALRGSLLLEEGQGEEAVAALQAAYEATRDPQVGVNLGAALVLVKRFGQAELVLREVLAKDPSSAAAWYNLGLALRGLGRQAEADRALRQAAALGSREARALLGR”: “failed”; “MGPLLVWHRGDLRLHDHPALLEALARGPVVGLVVLDPNNLKTTPRRRAWFLENVRALREAYRARGGALWVLEGLPWEKVPEAARRLKAKAVYALTSHTPYGRYRDGRVREALPVPLHLLPAPHLLPPDLPRAYRVYTPFSRLYRGAAPPLPPPEALPKGPEEGEIPREDPGLPLPEPGEEAALAGLRAFLEAKLPRYAEERDRLDGEGGSRLSPYFALGVLSPRLAAWEAERRGGEGARKWVAELLWRDFSYHLLYHFPWMAERPLDPRFQAFPWQEDEALFQAWYEGKTGVPLVDAAMRELHATGFLSNRARMNAAQFAVKHLLLPWKRCEEAFRHLLLDGDRAVNLQGWQWAGGLGVDAAPYFRVFNPVLQGERHDPEGRWLKRWAPEYPSYAPKDPVVDLEEARRRYLRLARDLARG”: “not failed”.
Under “MGPVPEFSVIIPARNEAAYLPGTLRALERQTLAPAEVIVVDNASRDQTAQIARSWGAQVLSCPEGGVARARQLGLDTARSSWVATTDADSLPAPGWLAAYAQAALLAGGYPEVEAYEDVILGQNLARLGEIGYVPRALVETSARRLDRGVGPFLIQHLRNLTGHTRGLEHHHHHH” stands “failed”; under “MGQNQFRWSNEQLREHVEVIDGTRSPHIVLRNATYLNSYIREWMQANIWIYDDRIIYVGEKLPEQLHECEVIDCDGKYVVPSYIEPHAHPYQLYNPETLANHAMQFGTTTFINDNLTLFFTLKRELEHHHHHH”, “failed”; under “MGQPQQPEGAGAEEAAAGTDSGTDTGTGAGAGAATGASATRPPLRVGMVGYAFMGAAHSQGWRTAGRVFDLPLNPVLAAICGRDADAVRLAADRHGWASTETDWRTLVERDDIDLVDICTPGDSHSEIALAALAAGKHVLCEKPLANTVEEAQAMTRAAEEAAARGQLAMVGFNYRRVPATALARRMVAEGRVGRLRHLRVTYLQDWLVDPKAPLTWRLRKELAGSGALGDLGAHIVDLAQYLSGERIAGVSALTETFVRERPLPAGAPRGLSAGSADGVTGQVTVDDAAVFTGRLTSGALVSFEATRYATGRKNALRIELNGERGSLAFDLERLNELSYHDGTEPGEHAGFRRILVTEPEHPYLEAWWPPGHGLGYEHTFVHQARDLVHAVAEGRGPEPSFADGLQVQRVLAAVEESAEKNSVYTPITP”, “failed”.
Under “MGQTALARGSSSTPTSQALYSDFSPPEGLEELLSAPPPDLVAQRHHGWNPKDCSENIDVKEGGLCFERRPVAQSTDGVRGKRGYSRGLHAWEISWPLEQRGTHAVVGVATALAPLQADHYAALLGSNSESWGWDIGRGKLYHQSKGLEAPQYPAGPQGEQLVVPERLLVVLDMEEGTLGYSIGGTYLGPAFRGLKGRTLYPSVSAVWGQCQVRIRYMGERRVEEPQSLLHLSRLCVRHALGDTRLGQISTLPLPPAMKRYLLYK” stands “failed”; under “MGRIAWVVRADRPCAATNTHINEPPRRALTSGPGVFIRRTVAAAATRRRYPSAMAIHADTHDDLRLFQTGEHACGYWSDRRARDLVLDPHDPRLGAIYPQALAWGFRRSGDLVYRPHCERCRACVPVRIAVDAFHPDRSQRRCLTRNQDLVVRVVAAERTDEQLALYRQYLKYRHPGGGMDEHGATEFDQFLIGGWSHGRFLEIREPAIAHLPGRLLAVAVTDVTEHALSAIYTFYAPEAAARSLGTFAILQQIQWAQRERRAHVYLGYWIEGHAKMNYKRRFSALEAYDGRHWCDLPAHPSGT”, “failed”.
Take “MGRRFDHLGDVEAFIIVAEKGSMTEAAVALATTASVLSRAITRLETRLGAQLMRRTTRRLNLTDEGRAYLEQARAAFSMIDDAERAIQGPTGASLTGHVRISVPTTYGHHRLPAMLERFMQAYPEVQIELSITNRNVDLVAEGYDLAIRLGPLPDSGLVARKLEDASLRLVAAPHYLERAGMPQDVEDLAEHQCLPFVMPSTGRCAPWLFHVDGRDLDWTPPGRIQVFDDVLGVVSLAESGLGICQIYDFIIRDRVKEGRLVEVLDHAQGRFRPFSLIFAPHRRLSAATRTLIDFLVEK”: the protein production result was “failed”.
For the sequence “MGRYILGITVLVTVVVAPLEAGLSSVALLALLAAFGIGVQVIAPWFIPLVRSVDTPDDQTTETLNRLRERAGLTVRDVRVLDTEQEGTANVIVRGAPGYRRLFVTSTFLDVFDDEMATALLAVQAGRQEARVRARLIGGLLIALVPVFAALADIGPLWPLVGASLGLLVVTLWVTRRGVRAADDYAAEGVGPDTVADALERYADVHDMEPPRRRLANPFSKSPPLGNRIDRLREQAGE”, the protein production entry is recorded as “failed”.
Next, “MGSEVVNPTKPRFDLSMSKRTRKPWSSLINDMHHHAICTQSSQPKPDKEQEQIEDKEIDRKSLNNLMRCDEKLNGEADVNNKSSLDQHFEDGEGIKPTMQLVVKKEKQGGLKFKGLSQHIFRLIEFLLSYRTDY”: “failed”; “MGSGHILGTSRLPKETWMANAECFVLMLPLRECAGRCHVCLKTAYTMRHRLIECLSAYSPSFKTGRGCGCELDETYFPESFKGNHTKGSFTMPRHSRHRGKQVHRRGLSREQICVMTGVNDSNETFLQVSGRGILSRKRAMDVLRDRIASASVVATDKASAYVDVLAELEVDAHTAYDSKDPSEGTINRINTVHSLLDTFMKPFKGVSTKHLGTYLAWFKWCRTFMATDSGTAERTVARQLANGVCRSRIHDMFNVLPP”: “failed”.
For the sequence “MGSGKERDTFVYLAKLSEQAERYEEMVESMKSVAKLNVDLTVEERNLLSVGYKNVIGSRRASWRIFSSIEQKEAVKGNDVNVKRIKEYMEKVELELSNICIDIMSVLDEHLIPSASEGESTVFFNKMKGDYYRYLAEFKSGNERKEAADQSLKAYEIATTAAEAKLPPTHPIRLGLALNFSVFYYEIMNAPERACHLAKQAFDEAISELDTLNEESYKDSTLIMQLLRDNLTLWTSDISEEGGDDAHKTNGSAKPGAGGDDAE”, the protein production result is listed as “failed”.
Under “MGSGSMLQSWNLKTSKRTGSFDAKSSINAVAISPDGNTLATGIRDNAIKLWNINDGKLIHTLTGHQGQVRTVAFSPDGTLLASGSSDGTVKLWNATTGKEINTFTAHKEQVWSVAFNPDGKTLASTGQDGSVKIWGVSPQLEHHHHHH” stands “not failed”.
Turning to “MGSLERSKKKAQVWKKAVIHFSLCFVMGFFTGFAPAGKASFFSNFETTSYTSTKSPIPPQPFENATYTQHSLLNRTLINSQSQAPAPAESREAEGETRSLSEKEDENQVKVTPRGLVIVVTPIITKDRYKNVLLRRMANTLRLVPPPLLWIVVEKHSDGEEKSSSTMLRKTGIMYRRIVFKEDFTSLESELDHQRNLALRHIEHHKLSGIVHFAGLNNIYDLDFFVKIRDIEVFGTWPMALLSANRKRVVVEGPVCESSQVLGWHLRKINNETETKPPIHISSFAFNSSILWDPERWGRPSSVEGTKQDSIKYVKQVVLEDDTKLKGLPAQDCSKIMLWRLKFPTRTRLST”, the protein production entry is listed as “failed”.
For “MGSLYTSELSRAVSESVAAALQRSFQGELRSASALGSGWSTSAELLNRNDSTERYFVKLSEPQAVSMFSAEFEGIQAMAESETVRVPAPICYGNTAERSFIVLEYLELGGIGNEAVYRDFGEKLAAMHRCSSGGRGYGWHRGNTIGSTPQLNTWMHSWADFFVENRLRYQLKLARSRQGGRLRNEDALLQRVHSVLQEHEIQHQVTPSLVHGDLWTGNVATLRNQNEVVIFDPATYYGDREVDLAMTELFGRLPRAFYQAYDASWPLPKGYREKRRVIYNLYHILNHGALFGGGYYDQAQSMIETILR”, the protein production entry is on record as “not failed”.
Under “MGSMDQSIAVKSPLTYAEALANTIMNTYTVEELPPANRWHYHQGVFLCGVLRLWEATGEKRYFEYAKAYADLLIDDNGNLLFRRDELDAIQAGLILFPLYEQTKDERYVKAAKRLRSLYGTLNRTSEGGFWHKDGYPYQMWLDGLYMGGPFALKYANLKQETELFDQVVLQESLMRKHTKDAKTGLFYHAWDEAKKMPWANEETGCSPEFWARSIGWYVMSLADMIEELPKKHPNRHVWKNTLQDMIKSICRYQDKETGLWYQIVDKGDRSDNWLESSGSCLYMYAIAKGINKGYLDRAYETTLLKAYQGLIQHKTETSEDGAFLVKDICVGTSAGFYDYYVSRERSTNDLHGAGAFILAMTELEPLFRSAGK” stands “not failed”.
Next, “MGSSHHHHHHSSGENLYFQGHMIYPYKGKTPQIAASAFIADYVTITGDVVIGEETSIWFNTVIRGDVAPTVIGNRVNIQDNSILHQSPNNPLIIEDGVTVGHQVILHSAIVRKNALIGMGSIILDRAEIGEGAFIGAGSLVPPGKKIPPNTLALGRPAKVVRELTEDDIREMERIRREYVEKGQYYKALQQQRTSCADKKELP”: “not failed”.
Take “MGSSHHHHHHSSGLVPRGSHRSEFSSRSGYGEYVQQTLQPGMRVRMLDDYEEISAGDEGEFRQSNNGIPPVQVFWQSTGRTYWVHWHMLEILGPEEATEDKASAAVEKGAGATVLGTAFPS”: the protein production entry is reported as “not failed”.
“MGSSHHHHHHSSGRENLYFQGMAATAREDGASGQERGQRGCEHYDRGCLLKAPCCDKLYTCRLCHDNNEDHQLDRFKVKEVQCINCEKIQHAQQTCEECSTLFGEYYCDICHLFDKDKKQYHCENCGICRIGPKEDFFHCLKCNLCLAMNLQGRHKCIENVSRQNCPICLEDIHTSRVVAHVLPCGHLLHRTCYEEMLKEGYRCPLCMHSALDMTRYWRQLDDEVAQTPMPSEYQNMTVDILCNDCNGRSTVQFHILGMKCKICESYNTAQAGGRRISLDQQ”: the protein production entry is “failed”.
Under “MGSSHHHHHHSSGRENLYFQGMRLKSEMFVSALIRRVFAAGGFAAVEKKGAEAAGAIFVRQRLRDGRENLYGPAPQSFADDEDIMRAERRFETRLAGVEGEEIAALLERERRFDSDLWVVEIETDEIGTLLTLVDQPQA” stands “not failed”; under “MGSSLPFDLILEILQRTPAESLLRFKSTCKKWYELISNDKRFMYKHLDKSTKRFLRIENRERVQILDPVTEILAVSTIPNELRHKYFTLIHCDGLMLGMCYEELGSDPNLAVWNPVMRKIKWIKPSPPLVCYWGSDYLGFGYDKTFRDNYKILRFTYLGDDDDDESYPKCQIYEFNSGSWRSIEAKFDGEIDVEVDGVSVNGSMYWIELQEKKNFILSFDFSKETFNRICDSPLYWDIKRLGCFNGDRLSLLQQNEATREIHVSVTNKLSDEVVSFSRYFSVTLPDIPLFRSIDILPLPGCFIGKNRNIIAWCEQLVGKYDDHTSIILYEIGEGGVTKRIRTGRHEADEDYNDLDNCSYVYVPSLIPVPE”, “failed”.
